± gives the uncertainty stated by the source.
B1: Formin-binding protein 4, residues 200 to 261; numbered along this chain, Q8N3X1 (parent)
chain: SGWQYDTQCSLAGVGIEMGDWQEVWDENTGCYYYWNTQTNEVTWELPQYLATQVQGLQHYQP

Variants of: B1
Test: abundance fitness (aPCA) (normalised: wild type 0, dead -1); higher = more abundant; growth selection in yeast, the domain comes from the species named
Details: Homo sapiens

Point of comparison: W21M, abundance fitness -0.498 ± 0.1. Against it:
- D20N — within error, -0.264 ± 0.15
- D20P — higher, -0.252 ± 0.082
- D20Q — higher, -0.287 ± 0.091
- D20R — higher, -0.022 ± 0.068
- D20S — higher, -0.295 ± 0.071
- D20T — within error, -0.339 ± 0.079
- D20V — higher, -0.237 ± 0.06
- D20W — higher, -0.143 ± 0.084
- D20Y — higher, -0.217 ± 0.11
- W21A — lower, -0.948 ± 0.15
- W21C — lower, -0.804 ± 0.17
- W21D — within error, -0.716 ± 0.25
- W21E — lower, -1.03 ± 0.22
- W21F — within error, -0.313 ± 0.11
- W21G — lower, -0.791 ± 0.093
- W21H — within error, -0.297 ± 0.29
- W21I — lower, -0.859 ± 0.22
- W21K — lower, -1.05 ± 0.26
- W21L — lower, -0.847 ± 0.082
- W21N — lower, -1.1 ± 0.3
- W21P — lower, -0.812 ± 0.17
- W21R — lower, -0.811 ± 0.081
- W21T — lower, -0.792 ± 0.16
- W21V — lower, -0.82 ± 0.1
- W21Y — higher, -0.066 ± 0.21
- Q22A — higher, -0.121 ± 0.086
- Q22C — within error, -0.459 ± 0.13
- Q22D — within error, -0.371 ± 0.16
- Q22E — higher, 0.042 ± 0.19
- Q22F — within error, -0.423 ± 0.13
- Q22G — higher, -0.234 ± 0.15
- Q22H — within error, -0.641 ± 0.21
- Q22L — higher, -0.315 ± 0.072
- Q22M — higher, -0.217 ± 0.1
- Q22N — higher, -0.023 ± 0.17
- Q22P — lower, -0.905 ± 0.14
- Q22R — higher, 0.006 ± 0.072
- Q22S — higher, -0.136 ± 0.072
- Q22T — higher, -0.137 ± 0.09
- Q22V — higher, 0.063 ± 0.077
- Q22W — within error, -0.61 ± 0.15
- Q22Y — within error, -0.586 ± 0.26
- E23A — lower, -0.817 ± 0.13
- E23C — lower, -0.862 ± 0.18
- E23F — within error, -0.511 ± 0.15
- E23H — within error, -0.443 ± 0.36
- E23I — within error, -0.759 ± 0.22
- E23L — within error, -0.637 ± 0.081
- E23M — lower, -0.964 ± 0.18
- E23P — within error, -0.697 ± 0.14
- E23Q — within error, -0.431 ± 0.12
- E23R — within error, -0.59 ± 0.12
- E23S — within error, -0.682 ± 0.094
- E23T — within error, -0.582 ± 0.12
- E23V — lower, -1.07 ± 0.17
- E23W — lower, -1.06 ± 0.28
- E23Y — within error, -0.58 ± 0.21
- V24A — within error, -0.409 ± 0.11
- V24D — higher, -0.215 ± 0.14
- V24E — higher, -0.217 ± 0.1
- V24F — higher, -0.168 ± 0.14
- V24G — higher, -0.269 ± 0.075
- V24H — higher, -0.163 ± 0.13
- V24I — within error, -0.399 ± 0.18
- V24L — higher, -0.074 ± 0.07
- V24M — within error, -0.361 ± 0.14
- V24N — within error, -0.257 ± 0.15
- V24P — lower, -1.05 ± 0.32
- V24Q — higher, 0.097 ± 0.096
- V24R — higher, -0.145 ± 0.059
- V24T — higher, -0.036 ± 0.11
- V24W — within error, -0.437 ± 0.096
- V24Y — higher, -0.145 ± 0.13
- W25A — higher, -0.207 ± 0.088
- W25C — within error, -0.263 ± 0.15
- W25D — within error, -0.252 ± 0.19
- W25E — within error, -0.414 ± 0.1
- W25F — higher, -0.142 ± 0.12
- W25G — within error, -0.557 ± 0.076
- W25H — within error, -0.256 ± 0.23
- W25I — within error, -0.251 ± 0.24
- W25K — higher, -0.014 ± 0.098
- W25L — higher, -0.119 ± 0.071
- W25M — higher, -0.129 ± 0.11
- W25N — lower, -0.853 ± 0.23
- W25P — within error, -0.376 ± 0.14
- W25R — higher, -0.287 ± 0.075
- W25S — higher, -0.294 ± 0.083
- W25T — within error, -0.381 ± 0.11
- W25V — within error, -0.358 ± 0.09
- W25Y — higher, -0.209 ± 0.17
- D26A — higher, -0.176 ± 0.066
- D26C — higher, -0.228 ± 0.095
- D26E — higher, -0.148 ± 0.077
- D26F — within error, -0.296 ± 0.12
- D26G — within error, -0.373 ± 0.068
- D26I — within error, -0.593 ± 0.13
- D26K — within error, -0.345 ± 0.12
- D26L — within error, -0.5 ± 0.072
- D26M — higher, -0.09 ± 0.088
- D26N — higher, -0.084 ± 0.12
- D26P — lower, -1.14 ± 0.19
- D26Q — higher, -0.181 ± 0.097
- D26R — within error, -0.515 ± 0.078
- D26S — higher, -0.007 ± 0.061
- D26T — higher, -0.178 ± 0.093
- D26V — within error, -0.384 ± 0.067
- D26W — higher, -0.256 ± 0.092
- D26Y — within error, -0.322 ± 0.12
- E27A — higher, 0.043 ± 0.064
- E27C — higher, -0.213 ± 0.1
- E27D — higher, 0.101 ± 0.095
- E27F — within error, -0.319 ± 0.12
- E27G — higher, -0.066 ± 0.063
- E27H — higher, 0.516 ± 0.11
- E27I — higher, -0.174 ± 0.13
- E27K — higher, 0.076 ± 0.1
- E27L — within error, -0.429 ± 0.071
- E27M — within error, -0.381 ± 0.092
- E27N — higher, -0.127 ± 0.14
- E27P — within error, -0.349 ± 0.12
- E27Q — higher, -0.168 ± 0.12
- E27R — higher, -0.112 ± 0.058
- E27S — higher, -0.187 ± 0.074
- E27T — higher, -0.199 ± 0.094
- E27V — within error, -0.373 ± 0.066
- E27W — within error, -0.601 ± 0.11
- E27Y — within error, -0.288 ± 0.17
- N28C — higher, -0.022 ± 0.096
- N28D — higher, -0.002 ± 0.11
- N28E — higher, -0.07 ± 0.077
- N28F — within error, -0.329 ± 0.11
- N28G — higher, 0.073 ± 0.057
- N28H — higher, -0.229 ± 0.16
- N28I — higher, 0.281 ± 0.14
- N28K — higher, 0.108 ± 0.095
- N28L — higher, -0.233 ± 0.057
- N28M — within error, -0.32 ± 0.088
- N28P — higher, -0.133 ± 0.092
- N28S — higher, -0.151 ± 0.07
- N28T — higher, -0.153 ± 0.095
- N28V — within error, -0.507 ± 0.075
- N28W — higher, -0.291 ± 0.069
- N28Y — higher, -0.245 ± 0.13
- T29A — higher, 0.162 ± 0.065
- T29C — higher, -0.066 ± 0.13
- T29F — higher, -0.074 ± 0.19
- T29G — higher, -0.147 ± 0.056
- T29H — higher, -0.017 ± 0.16
- T29I — within error, -0.382 ± 0.14
- T29K — higher, 0.311 ± 0.073
- T29L — higher, -0.036 ± 0.067
- T29M — higher, -0.1 ± 0.11
- T29N — higher, -0.086 ± 0.16
- T29P — higher, -0.172 ± 0.11
- T29Q — higher, -0.125 ± 0.093
- T29R — higher, 0.117 ± 0.054
- T29S — higher, 0.123 ± 0.074
- T29W — within error, -0.362 ± 0.075
- T29Y — higher, 0.019 ± 0.15
- G30A — higher, -0.095 ± 0.063
- G30F — within error, -0.381 ± 0.12
- G30H — within error, -0.718 ± 0.24
- G30I — higher, 0.052 ± 0.16
- G30K — higher, 0.129 ± 0.093
- G30L — within error, -0.4 ± 0.082

Source: the Human Domainome abundance scans (Beltran et al. 2025)
